Data published in patent US8105799B2, “Methods of screening compounds inhibiting signal transduction through inflammatory cytokines” (Chugai Seiyaku Kabushiki Kaisha, priority 1998, dated 2012).

Legend:
TAB1 = molecular target: T1, TAB1 (Homo sapiens, UniProt Q15750); assay: Animal cell two-hybrid assay in CHO cells (luciferase reporter); format: cell-based, hamster; settings: pM-TAK1DN with pVP16-C68 (TAB1C68), 72 hours, FIG. 7
T1 construct: expressed in transfected cells; host or cells: CHO cells transfected with pVP16-C68
T1 sequence (Q15750 437-504): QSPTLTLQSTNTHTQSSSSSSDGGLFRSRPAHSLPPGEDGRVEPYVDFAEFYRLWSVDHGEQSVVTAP
Description: The animal cell two-hybrid system (Dang et al., (1991) Mol. Cell. Biol. 11, 954-962) using TAB1 peptide and TAK1 peptide was used to analyze whether or not a peptide (TAK1-DN) from Glu at amino acid 77 to Gln at amino acid 303 in the TAK1 peptide of SEQ ID NO: 2 is capable of inhibiting the binding between TAK1 peptide and TAB1 peptide and further capable of inhibiting TAK1 peptide activation in animal cells.
First, each of genes encoding full-length TAK1 and TAK1-DN was ligated with the gene encoding GAL4 DNA-binding domain (GAL4-BD) to prepare an expression vector. The gene encoding full-length TAK1 was obtained from yeast two-hybrid expression plasmid pBTMHu11F (Shibuya H. et al., (1996) 272, 1179-1182) by digesting it with restriction enzymes EcoRI and PstI. Subsequently, the gene was ligated between EcoRI and PstI sites of an expression vector pM (CLONTECH) containing the GAL4-BD gene to obtain an animal cell two-hybrid expression plasmid pM-TAK1. […]
The culture further continued for 72 hours, and then luciferase activities in each cell extract were assayed by using Dual-Luciferase™ Reporter Assay System (Promega). […] The efficiency of gene introduction was normalized by using measured values for the activity of Renilla luciferase derived from the introduced pRL-SV40.

peritoneal macrophages [1] = assay: IL-6 production by IL-1α-stimulated peritoneal macrophages expressing TAK1-DN; format: cell-based; settings: IL-1α 10 ng/ml, 24 hours; TAK1-DN Tgm-derived macrophages compared with wild-type mouse-derived macrophages; ELISA; FIG. 5
Experimental: (§1) Specifically, 10 ml of ice-cold PBS solution containing 0.36% sodium citrate was injected into the peritoneal cavity of a TAK1-DN-expressing transgenic mouse (TAK1-DN Tgm) or a C57BL/6 mouse (wild-type mouse) of the same weeks of age. The mouse was given a massage for 30 seconds, and then the solution was recovered from the mouse. The solution recovered was centrifuged, and the precipitated cells were resuspended in RPMI1640 (GIBCO-BRL) containing 10% FBS (GIBCO-BRL). The cells were plated in wells at a cell density of 5×10^4/well. The cells were cultured at 37° C. for 2 hours, and floating cells were removed by washing with media. Cells adsorbed on the culture plate were used as peritoneal macrophages.
(§2) LPS, at a final concentration of 10 μg/ml, or IL-1α (Genzyme), at a final concentration of 10 ng/ml, was added to the above-prepared peritoneal macrophages, and the cells were further cultured for 24 hours. The culture supernatant was recovered. Then, the amounts of IL-1β in the culture supernatant of LPS-stimulated macrophages and IL-6 in the culture supernatant of IL-1α-stimulated macrophages were assayed by ELISA kits (Genzyme).

peritoneal macrophages [2] = assay: Cytokine production by LPS-stimulated peritoneal macrophages expressing TAK1-DN; format: cell-based; settings: LPS 10 μg/ml, 24 hours, TAK1-DN Tgm-derived macrophages compared with wild-type mouse-derived macrophages, FIG. 4
Experimental: as §1, §2

[3] = tested on: IκBα degradation by proteasome (NFκB activation); assay: IκBα degradation in TAK1-DN expressing peritoneal macrophages stimulated by LPS and IL-1α (Western blot); format: cell-based, mouse; settings: 30 and 60 minutes, TAK1-DN Tgm-derived macrophages, FIG. 6
Experimental: The macrophages derived from wild-type mice and from TAK1-DN Tgm, which were prepared as described above, were stimulated by LPS or IL-1, and the time course of degradation of IκBα by proteasome was monitored (0, 30, and 60 minutes). Specifically, the peritoneal macrophages were cultured in wells of a 96-well plate at a cell density of 1×10^6/well. LPS (1 μg/ml) or IL-1α (10 ng/ml) was added to the culture in the presence or absence of proteasome inhibitor MG132 (40 μM). The cells were harvested after 30 or 60 minutes.
The cells were washed with PBS (−), and then a lysis buffer was added thereto for the preparation of cell lysate. An aliquot of each lysate corresponding to about 2×10^5 cells was subjected to gel electrophoresis by 9% SDS-PAGE. The fractionated proteins were blotted onto a nitrocellulose membrane and then incubated with anti-IκBα antibody (SantaCruz) as a primary antibody for 1.5 hours. After wash, horseradish peroxidase-conjugated goat anti-rabbit antibody was used as a secondary antibody. After the reaction of the secondary antibody, the reaction product was detected by using ECL (Amersham).

B1: TAK1-DN: TAB1-binding region of TAK1, amino acid 77 Glu to amino acid 303 Gln of SEQ ID NO: 2; dominant negative inhibitor (protein, listed as Homo sapiens)
chain: ELRQLSRVNHPNIVKLYGACLNPVCLVMEYAEGGSLYNVLHGAEPLPYYTAAHAMSWCLQCSQGVAYLHSMQPKALIHRDLKPPNLLLVAGGTVLKICDFGTACDIQTHMTNNKGSAAWMAPEVFEGSNYSEKCDVFSWGIILWEVITRRKPFDEIGGPAFRIMWAVHNGTRPPLIKNLPKPIESLMTRCWSKDPSQRPSMEEIVKIMTHLMRYFPGADEPLQYPCQ
TAB1
  luciferase activity (binding to TAB1): capable of binding to TAB1
Peritoneal macrophages [1]
  induction of IL-6 production by IL-1 stimulation: significantly inhibited
Peritoneal macrophages [2]; ELISA
  induction of production of IL-1β: significantly inhibited
Peritoneal macrophages [2]
  induction of production of IL-6: significantly inhibited
  induction of production of TNF: significantly inhibited
[3]; IL-1α 10 ng/ml
  degradation of IκBα: no remarkable degradation of IκBα
[3]; LPS 1 μg/ml
  degradation of IκBα: no remarkable degradation of IκBα
